Results reported in patent US20190111114A1 (BRIGHAM AND WOMEN S HOSPITAL, published 2019).

Molecular target: T1, BCL11A, endogenous, in mouse erythroid (MEL) cells (mouse, UniProt Q9QYE3 1-835, limits assumed)
T1 sequence (looked up): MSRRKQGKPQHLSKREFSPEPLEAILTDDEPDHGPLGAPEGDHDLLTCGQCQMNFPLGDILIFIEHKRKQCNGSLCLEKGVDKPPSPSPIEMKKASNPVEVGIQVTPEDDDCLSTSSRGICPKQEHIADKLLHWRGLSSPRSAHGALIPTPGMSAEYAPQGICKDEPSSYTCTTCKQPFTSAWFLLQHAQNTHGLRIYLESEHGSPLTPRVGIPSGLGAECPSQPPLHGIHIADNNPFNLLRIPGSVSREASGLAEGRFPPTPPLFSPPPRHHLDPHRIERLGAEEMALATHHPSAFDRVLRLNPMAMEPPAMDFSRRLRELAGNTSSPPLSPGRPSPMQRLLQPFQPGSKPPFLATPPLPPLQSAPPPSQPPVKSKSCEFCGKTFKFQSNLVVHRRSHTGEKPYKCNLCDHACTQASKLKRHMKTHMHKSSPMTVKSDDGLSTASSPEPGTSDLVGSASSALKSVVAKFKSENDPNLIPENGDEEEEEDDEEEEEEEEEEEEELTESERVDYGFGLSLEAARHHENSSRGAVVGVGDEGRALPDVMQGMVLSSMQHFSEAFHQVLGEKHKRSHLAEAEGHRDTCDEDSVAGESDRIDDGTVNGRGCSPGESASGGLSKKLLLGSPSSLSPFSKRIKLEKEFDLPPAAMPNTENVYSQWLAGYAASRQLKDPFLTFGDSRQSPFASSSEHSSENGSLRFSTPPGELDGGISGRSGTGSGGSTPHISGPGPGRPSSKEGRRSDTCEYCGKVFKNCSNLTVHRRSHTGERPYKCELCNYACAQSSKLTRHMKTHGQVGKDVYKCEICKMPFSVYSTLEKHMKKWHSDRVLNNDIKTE
Test: immunoprecipitation of tagged mouse LRF from MEL cells, Western blot
Text: FKPM values were obtained from RNA-Seq experiments. (B) Validation of Y2H results by IP. […] Protein samples from empty vector-transfected cells served as negative controls. (C) LRF/GATAD2B interaction was validated in mouse erythroleukemia (MEL) cells. Applicants generated a series of expression vectors encoding N- or C-terminally-tagged mouse LRF (mLRF) and performed IP in MEL cells. Applicants could pull-down NuRD components and endogenous LRF protein only when Applicants expressed the LRF tagged at the far C-terminus. Anti-HA antibody could pull down both endogenous and exogenous LRF plus NuRD components (far right lane), while antibody against Flag, which was placed 15 aa upstream of the HA tag, pulled down only exogenous LRF (2nd lane from the left). Although Applicants tested 5 different (2 original and 3 commercially-available) anti-LRF antibodies for IP in mouse cells, none could pull down endogenous mouse LRF protein. Native LRF in the large NuRD complex may be inaccessible to anti-LRF antibodies in mouse cells (a model shown on right). Applicants note that the BCL11A image is from a different membrane. (D) Knockout of LRF or BCL11A was confirmed by Western blot using anti-LRF or -BCL11A antibodies. GAPDH: loading control. (E) Relative copy number of indicated β-globin transcripts was determined by q-PCR, as described in FIG. 8C. […]

B1: mouse LRF tagged at the far C-terminus with Flag and HA (pMX-mCherry-FHC-mLRF), expressed in MEL cells (other, UniProt O88939 1-569, looked up)
chain: MAGGVDGPIGIPFPDHSSDILSGLNEQRTQGLLCDVVILVEGREFPTHRSVLAACSQYFKKLFTSGAVVDQQNVYEIDFVSAEALTALMDFAYTATLTVSTANVGDILSAARLLEIPAVSHVCADLLERQILAADDVGDASQPDGAGPTDQRNLLRAKEYLEFFRSNPMNSLPPTAFPWSGFGAPDDDLDATKEAVAAAVAAVAAGDCNGLDFYGPGPPADRPPAGDGDEGDSTPGLWPERDEDAPPGGLFPPPTAPPATTQNGHYGRAGAGTGEEEAAALSEAAPEPGDSPGFLSGAAEGEDGDAADVDGLAASTLLQQMMSSVGRAGDSDEESRTDDKGVMDYYLKYFSGAHEGDVYPAWSQKGEKKIRAKAFQKCPICEKVIQGAGKLPRHIRTHTGEKPYECNICKVRFTRQDKLKVHMRKHTGEKPYLCQQCGAAFAHNYDLKNHMRVHTGLRPYQCDSCCKTFVRSDHLHRHLKKDGCNGVPSRRGRKPRVRGVPPDVPAGAGAPPGLPDAPRNGQEKHFKDEEEDEEEASPDGSGRLNVAGSGGDDGAGGPAVATAEGNFAT
notes: also called exogenous LRF; not shown: Flag and HA tags at the 3' end of the cDNA, Flag placed 15 aa upstream of the HA tag
B1: no binding.
